For one molecule, amount of peptide eluted from MHC II and copies per cell presented on MHC II results are on record in article PMC3408443.

The target of the experiment is MHC II molecules of Flt3L-mobilized splenic CD11c+ DCs from Balb/c×C57Bl/6 (I-A^b,d/E^d) F1 mice (mouse (endogenous in splenic DCs)). The experiment can be described thus: affinity purification with mass spectrometry.

In the case of KELEEQLGPVAEETR [… MHC II peptide derived from endogenous apolipoprotein E], the amount of peptide eluted from MHC II came out at 15 fmol/µL and the copies per cell presented on MHC II was determined as 180 copies/cell.
